Source: paper PMC4626678 (2015)

T1: trypsin (Bos taurus, UniProt P00760)
T1 chain: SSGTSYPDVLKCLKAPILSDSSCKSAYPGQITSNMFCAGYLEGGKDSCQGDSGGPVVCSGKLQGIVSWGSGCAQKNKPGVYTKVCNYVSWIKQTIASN


What was measured:
[1] = molecular target: T1, trypsin; assay: enzyme inhibition (Dixon, BAPNA)
[2] = molecular target: T1, trypsin; assay: SPR
[3] = molecular target: alpha-chymotrypsin (Bos taurus, UniProt P00766); assay: SPR

| Binder | Ki [1] [nM] | Kd [2] [nM] | Kd [3] [nM] |
| --- | --- | --- | --- |
| HCRG2 (protein) RGICLEPKVVGPCKARIRRFYYDSETGKCTPFIYGGCGGNGNNFETLHACRGICRA | 50 | 0.68 | 1.6 |
| HCRG1 (protein) RGICSEPKVVGPCKAGLRRFYYDSETGECKPFIYGGCKGNKNNFETLHACRGICRA | 28 | 0.22 | 1.8 |
